Patent JP2022109630A

Columns and labels:
Test in all cases: ELISA, immobilised recombinant L7/L12 (10 ng/mL), antibody 10 ug/mL
[1] = molecular target: レジオネラ・ニューモフィラ(LP)のリボソームタンパク質L7/L12 (レジオネラ・ニューモフィラ (Legionella pneumophila))
[2] = molecular target: 百日咳菌(BP)のリボソームタンパク質L7/L12 (百日咳菌 (Bordetella pertussis))
[3] = molecular target: 肺炎球菌(SP)のリボソームタンパク質L7/L12 (肺炎球菌 (Streptococcus pneumoniae))
[4] = molecular target: 溶連菌(SPY)のリボソームタンパク質L7/L12 (溶連菌 (Streptococcus pyogenes))
[5] = molecular target: 髄膜炎菌(NM)のリボソームタンパク質L7/L12 (髄膜炎菌 (Neisseria meningitidis))
[6] = molecular target: リステリア・モノサイトゲネス(LM)のリボソームタンパク質L7/L12 (リステリア・モノサイトゲネス (Listeria monocytogenes))
[7] = molecular target: カンピロバクター・ジェジュニ(CJ)のリボソームタンパク質L7/L12 (カンピロバクター・ジェジュニ (Campylobacter jejuni))
[8] = molecular target: クレブシエラ・ニューモニエ(KP)のリボソームタンパク質L7/L12 (クレブシエラ・ニューモニエ (Klebsiella pneumoniae))
[9] = molecular target: 緑膿菌(PA)のリボソームタンパク質L7/L12 (緑膿菌 (Pseudomonas aeruginosa))
[10] = molecular target: モラキセラ菌(MC)のリボソームタンパク質L7/L12 (モラキセラ菌 (Moraxella catarrhalis))
[11] = molecular target: 黄色ブドウ球菌(SA)のリボソームタンパク質L7/L12 (黄色ブドウ球菌 (Staphylococcus aureus))
[12] = molecular target: クラミジア・トラコマチス(CT)のリボソームタンパク質L7/L12 (クラミジア・トラコマチス (Chlamydia trachomatis))
[13] = molecular target: 肺炎クラミジア(CP)のリボソームタンパク質L7/L12 (肺炎クラミジア (Chlamydia pneumoniae))
[14] = molecular target: 淋菌(NG)のリボソームタンパク質L7/L12 (淋菌 (Neisseria gonorrhoeae))
[15] = molecular target: 肺炎マイコプラズマ(MP)のリボソームタンパク質L7/L12 (肺炎マイコプラズマ (Mycoplasma pneumoniae))
[16] = molecular target: サルモネラ菌(SE)のリボソームタンパク質L7/L12 (サルモネラ菌 (Salmonella enteritidis))

Measured: absorbance at 450 nm (absorbance (450 nm))

B1: 汎用性抗体C(CP141A190.1) (antibody, V domains shown)
VH: QVQLQQPGAELVKPGASVKLSCKTSGYNFTSNWIHWVKQRPGQGLEWIGEINPSNGRANYNEKFKNKATLTVDKSSSTAFMHLSSLTSEDSAVYFCSRGDFDEGFTYWGQGTLVTVSA
VL: QIVLTQSPAIMSASLGERVTMTCTASSNVNSDYLHWYQQKPGSSPRLWIYTTSNLASGVPTRFSGNGSGTSYSLTISSMEAEDAATYYCHQYHRSPRTFGGGTKLEIK
> 0.3: [1]

B2: 汎用性抗体A(PA51B2) (antibody, V domains shown)
VH: QVQLQQPGSVLVRPGASVKLSCKPSGYTFTGSWMHWTKQRPGQGLEWIGEIHPYSGNTNYNEKFRVKATLTVDTSSSTTYVDLSSLTSDDSAVYYCASGDFDAGFTYWGQGTLVTVSA
VL: DIVLTQSPASLAVSLGRRATISCKASQSVDYDGDSYMNWYQQKPGQPPKLLIYVASNLESGIPARFSGSGSGTDFTLNIHPVEEEDAATYYCQQTNEDPFTFGAGTKLELK
> 0.3: [1]

B3: 汎用性抗体B(LP54A3) (antibody, V domains shown)
VH: EVQLQQSGAELVKPGASVRLSCSASGFNIKDTYMHWMRQRPEQGLEWIGRIDPANGNAKYDPKFQVKATITADTSSNTASLQFSSLTSEDTAVYFCASESLDDMYYFDYWGQGTTLTVSS
VL: DIVMTQSQKFMSTSVGDRVSVTCKASQNVGVNVAWYQQKPGQSPKALIYSASYRYSGVPDRFTGSGSGTDFTLTISNVQSEDLAEYFCQQYHSYLYTFGGGTKLEIK
> 0.3: all assays above
